Test results published in PMC5890177, “Selective Detection of Lysozyme Biomarker Utilizing Large Area Chemical Vapor Deposition-Grown Graphene-Based Field-Effect Transistor”.

Molecular target: lysozyme (chicken (egg white), UniProt P00698 19-147)
Assay: square wave voltammetry (electrochemical aptasensor); 0.01x PBS; peak current falls with lysozyme; 0.01x PBS (stock dilutions in 0.1 mM phosphate-buffered solution, pH 7.4), 30 min incubation, then rinse in 0.01x PBS and DI water; chip pretreated with Tween 20; binding temperature not stated
Settings: protein: commercial; label: methylene blue

lysozyme, sequence (P00698 19-147): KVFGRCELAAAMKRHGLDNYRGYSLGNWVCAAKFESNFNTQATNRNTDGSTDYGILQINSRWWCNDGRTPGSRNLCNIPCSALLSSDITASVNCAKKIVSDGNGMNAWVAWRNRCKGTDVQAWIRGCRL

## ATCAGGGCTAAAGAGTGCAGAGTTACTTAG (ssDNA, thiol) [MB-labelled thiolated anti-lysozyme aptamer]
  binding result: binds
